Reference: US20260070984A1 (Boehringer Ingelheim, published 2026)
Positions count from the first letter of the chain named. Like-named read-outs stand apart in the source and are kept apart here. Values belong to the binder of their own block, whether it stands above or below them.

Key:
recombinant human PD-1 [1] = target: T1, recombinant human PD-1 (human, UniProt Q15116 25-167, limits assumed); assay: SPR, ProteOn XPR36
T1 construct: Soluble recombinant protein used in SPR; also called PDCD1; purified recombinant human PD-1
T1 sequence (Q15116 25-167 limits assumed): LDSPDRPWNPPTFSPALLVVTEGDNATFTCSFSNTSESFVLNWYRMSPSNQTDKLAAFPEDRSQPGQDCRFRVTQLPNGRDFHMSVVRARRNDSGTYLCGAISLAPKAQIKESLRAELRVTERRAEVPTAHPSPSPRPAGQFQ
Method: Kinetics and binding affinities were measured using the ProteOn™ XPR36 (Biorad, Hercules, CA) surface plasmon resonance optical biosensor using material generated from transient transfection following single column purification.

[2] = target: T2, human PD-1 expressed on cells (human, UniProt Q15116 25-288); assay: cell-based or functional assay
T2 sequence (Q15116 25-288): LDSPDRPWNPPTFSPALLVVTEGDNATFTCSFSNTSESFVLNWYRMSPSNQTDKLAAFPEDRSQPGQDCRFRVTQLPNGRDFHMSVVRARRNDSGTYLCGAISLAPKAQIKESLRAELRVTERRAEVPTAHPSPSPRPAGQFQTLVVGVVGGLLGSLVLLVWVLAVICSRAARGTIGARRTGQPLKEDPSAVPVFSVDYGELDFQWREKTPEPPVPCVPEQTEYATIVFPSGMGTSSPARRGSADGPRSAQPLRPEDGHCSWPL

[3] = target: T2, human PD-1 expressed on cells; assay: cell-based or functional assay; remark: listed apart in the source
[4] = target: T2, human PD-1 expressed on cells; assay: cell-based or functional assay; remark: listed apart in the source
[5] = target: T2, human PD-1 expressed on cells; assay: cell-based or functional assay; remark: listed apart in the source
recombinant human PD-1 [6] = target: T1, recombinant human PD-1; assay: SPR, ProteOn XPR36, 1:1 binding model
Method: Antibody PD1AB-6-4P (antibody in IgG4Pro backbone disclosed in WO2017/058859 to Celgene) was also tested.

cynomologous PD-1 [7] = target: T3, cynomologous PD-1 (cynomolgus monkey, UniProt B0LAJ3 25-170); assay: SPR, ProteOn XPR36, 1:1 binding model
T3 construct: Used in SPR; also called cynomolgus PD-1; recombinant cynomologus PD-1
T3 sequence (B0LAJ3 entry or part of it limits assumed): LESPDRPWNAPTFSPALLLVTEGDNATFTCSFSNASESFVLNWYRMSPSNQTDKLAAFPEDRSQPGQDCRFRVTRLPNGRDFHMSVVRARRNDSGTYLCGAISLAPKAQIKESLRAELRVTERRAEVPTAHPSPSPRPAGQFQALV
Method: C) Affinity and kinetic data for the anti-PD-1 antibodies binding to cynomologous PD-1 were measured on the ProteOn™ XPR36 surface plasmon resonance optical biosensor, and globally fit to a 1:1 binding model (Table 11).

[8] = target: T2, human PD-1 expressed on cells; assay: DELFIA Eu TRF assay: enhancement of biotin labeled PD-L1 binding to CHO cells expressing PD-1
Method: (§1) 10,000 cells were plated and incubated overnight at 37° C.±5% CO2 incubator (humidified incubator). […] Plates were washed twice with 50 μl of 1× TRF Wash Buffer. 20 μL of Eu-Streptavidin reagent was added to the assay plate, and incubated at room temperature for one hour. Enhancement Solution was added and incubated for 30 minutes at RT.

[9] = target: T2, human PD-1 expressed on cells; assay: flow cytometry: enhancement of PDL1-biotin/Streptavidin-APC binding to CHO cells expressing PD-1
Method: A second cell-based assay where PD-1 was expressed on CHO cells was also utilized to evaluate PD-1/PD-L1 interactions. […] 50 μl of 2×10⁶ cells/ml were added to each well (100,000 cells/well). Cells were centrifuged and re-suspended in 50 μl of the indicated antibody concentrations and incubated for 60 minutes on ice. […] Cells were washed and resuspended in 180 μl stain buffer +20μ PFA and data was acquired on a BD LSR II.

[10] = target: T2, human PD-1 expressed on cells; assay: cell-based or functional assay; remark: listed apart in the source
[11] = target: T2, human PD-1 expressed on cells; assay: cell-based or functional assay; remark: listed apart in the source
[12] = target: T2, human PD-1 expressed on cells; assay: flow cytometry, AlexaFluor 647 labeled antibody on Jurkat cells expressing human PD-1
Method: Selectivity of anti-PD-1 antibody to human PD-1 protein in a cell-based assay was evaluated by flow cytometry. […] As a control, parental and PD-1 expressing Jurkat cells were incubated with anti-TNP isotype control antibodies. Following incubation, the cells were washed to remove non-bound antibody, fixed in PFA, and then washed in staining buffer. Binding of the antibody to the Jurkat cells was evaluated by flow cytometry. Unstained cells were also evaluated by flow cytometry as a negative control.

[13] = target: T2, human PD-1 expressed on cells; assay: CHO-PD1-PDL1 DELFIA Eu TRF assay: enhancement of biotin labeled PD-L1 binding to CHO cells expressing PD-1, antibody titrated
Method: as §1

cynomologous PD-1 [14] = target: T3, cynomologous PD-1; assay: SPR, ProteOn XPR36

B1: Chimeric 723C2 in IgG4Pro (antibody, V domains shown)
VH: EVQLVESGGGLVQPGGSLKLSCAASGFTFSDYYMSWVRQTPEKRLEWVAYISSGGGSSYYPDSVKGRFTISRDNTKNTLYLQMSSLKSEDTAVYYCARLPHYFAMDYWGQGTSVTVSS
VL: EIVLTQSPTTMAASPGEKITITCSASSSISSDYLHWYQQKPGFSPELLIYRTSNLASGVPARFSGSGSGTSYSLTIGSMEAEDVATYYCQQGTSLPRAFGGGTKLEIKR
Kd (recombinant human PD-1 [1]): 2.58 nM | koff (recombinant human PD-1 [1]): 0.000582 s⁻¹ | kon (recombinant human PD-1 [1]): 226000 M⁻¹ s⁻¹ | Emax Values (%), inhibition of NFAT activity [2]: 42.6% | IC50 Values (nM), inhibition of NFAT activity [2]: 0.13 nM | Emax Values (%), Average, inhibition of IFNγ [3]: 66.5% | IC50 Values (pM), Geomean, inhibition of IFNγ [3]: 18 pM | Emax Values (%), Average, inhibition of IL-17A [4]: 70% | IC50 Values (pM), Geomean, inhibition of IL-17A [4]: 14.4 pM | IC50 Values (pM), Geomean, inhibition of IL-21 [5]: 12 pM | Kd (recombinant human PD-1 [6]): 2.58 nM | koff (recombinant human PD-1 [6]): 0.000582 s⁻¹ | kon (recombinant human PD-1 [6]): 226000 M⁻¹ s⁻¹ | Kd (cynomologous PD-1 [7]): 38.9 nM | koff (cynomologous PD-1 [7]): 0.00721 s⁻¹ | kon (cynomologous PD-1 [7]): 185000 M⁻¹ s⁻¹

B3: Antibody C (antibody, human IgG4 S228P, kappa, V domains shown)
VH: EVQLVESGGGLVQPGGSLRLSCAASGFTFSDYYMSWVRQAPGKGLEWVAYISSGGGSSYYPDAVKGRFTISRDNAKQSLYLQMQSLRAEDTAVYYCARLPHYFAMDYWGQGTLVTVSS
VL: DIQMTQSPSSLSASVGDRVTITCQASQSISSDYLHWYQQKPGKAPKLLIYRTSNLETGVPSRFSGSGSGTDFTFTISSLQPEDIATYYCQQGTSLPRAFGQGTKLEIKR
notes: Humanized 723C2, human IgG4Pro/kappa; also called Ab C; 723C2-IgG4Pro-461-47 with IgK-462-07
Emax Values (%), Average, inhibition of IFNγ [3]: 46.8% | IC50 Values (pM), Geomean, inhibition of IFNγ [3]: 17.7 pM | IC50 Values (nM), Geomean, inhibition of IFNγ [10]: 0.03 nM | IC50 Values (nM), Geomean, inhibition of IFNγ [11]: 0.03 nM | Emax Values (%), Average, inhibition of IL-17A [4]: 62.9% | IC50 Values (pM), Geomean, inhibition of IL-17A [4]: 32.5 pM | IC50 Values (pM), Geomean, inhibition of IL-21 [5]: 6 pM | Kd (recombinant human PD-1 [6]): 2.65 nM | koff (recombinant human PD-1 [6]): 0.000463 s⁻¹ | kon (recombinant human PD-1 [6]): 175000 M⁻¹ s⁻¹ | Kd (cynomologous PD-1 [7]): 41 nM | koff (cynomologous PD-1 [7]): 0.00633 s⁻¹ | kon (cynomologous PD-1 [7]): 154000 M⁻¹ s⁻¹ | EC50 (read off the curve) [12]: ~10 nM | EC50 [13]: 2.4 nM

B4: Antibody D (antibody, human IgG4 S228P, kappa, V domains shown)
VH: B3 VH with A63L, Q84N
VL: B3 VL with T57S
notes: Humanized 723C2, human IgG4Pro/kappa; also called 723C2-IgG4Pro-461-44 with IgK-462-08
Emax Values (%), Average, inhibition of IFNγ [3]: 50.1% | IC50 Values (pM), Geomean, inhibition of IFNγ [3]: 18 pM | Emax Values (%), Average, inhibition of IL-17A [4]: 63.9% | IC50 Values (pM), Geomean, inhibition of IL-17A [4]: 31.9 pM | Kd (recombinant human PD-1 [6]): 2.58 nM | koff (recombinant human PD-1 [6]): 0.000574 s⁻¹ | kon (recombinant human PD-1 [6]): 222000 M⁻¹ s⁻¹ | Kd (cynomologous PD-1 [7]): 45.2 nM | koff (cynomologous PD-1 [7]): 0.00674 s⁻¹ | kon (cynomologous PD-1 [7]): 149000 M⁻¹ s⁻¹

The next lines start with the values.

EC50 (read off the curve) [8]: ~2 nM | EC50 (read off the curve) [9]: ~6 nM
B2: antibody 723C2 in human IgG4Pro backbone without the DC to DY mutation in H-CDR3 (antibody, V domains shown)
VH: B1 VH with Y107C
VL: EIVLTQSPTTMAASPGEKITITCSASSSISSDYLHWYQQKPGFSPELLIYRTSNLASGVPARFSGSGSGTSYSLTIGSMEAEDVATYYCQQGTSLPRAFGGGTKLEIK
notes: Mouse 723C2 variable domains (H-CDR3 ending DC) in human IgG4Pro backbone; also called 723C2-4P

Kd (cynomologous PD-1 [14]): 25 nM | Emax Values (%), Average, inhibition of IFNγ [3]: 40.1% | IC50 Values (pM), Geomean, inhibition of IFNγ [3]: 31.5 pM | Emax Values (%), Average, inhibition of IL-17A [4]: 67.5% | IC50 Values (pM), Geomean, inhibition of IL-17A [4]: 176 pM | IC50 Values (pM), Geomean, inhibition of IL-21 [5]: 50 pM
B5: PD1AB-6-4P (antibody, V domains shown)
VH: EVQLVQSGAEVKKPGATVKISCKASGFNIKDTYMHWVQQAPGKGLEWMGRIDPANGDRKYDPKFQGRVTITADTSTDTAYMELSSLRSEDTAVYYCARSGPVYYYGSSYVMDYWGQGTTVTVSS
VL: DIVMTQSPDSLAVSLGERATINCKSGQSVLYSSNQKNFLAWYQQKPGQPPKLLIYWASTRESGVPDRFSGSGSGTDFTLTISSLQAEDVAVYYCHQYLYSWTFGQGTKLEIK
